Test results reported in publication PMC3235118, “Juvenile Hormone (JH) Esterase of the Mosquito Culex quinquefasciatus Is Not a Target of the JH Analog Insecticide Methoprene” (PLoS ONE, 2011).

Key:
CqJHE [1] = biological target: T1, CqJHE (Culex quinquefasciatus, UniProt R4HZP1); assay: competition in JH III partition assay; assay type: biochemical
T1 construct: gene jhe; full-length cDNA (ORF 1746 nt) from 4th instar larvae, predicted 19-residue signal peptide removed on secretion, mature 563 residues, 63,430 Da; recombinant baculovirus AcCqJHE in High Five cells, secreted
T1 sequence (R4HZP1 20-582): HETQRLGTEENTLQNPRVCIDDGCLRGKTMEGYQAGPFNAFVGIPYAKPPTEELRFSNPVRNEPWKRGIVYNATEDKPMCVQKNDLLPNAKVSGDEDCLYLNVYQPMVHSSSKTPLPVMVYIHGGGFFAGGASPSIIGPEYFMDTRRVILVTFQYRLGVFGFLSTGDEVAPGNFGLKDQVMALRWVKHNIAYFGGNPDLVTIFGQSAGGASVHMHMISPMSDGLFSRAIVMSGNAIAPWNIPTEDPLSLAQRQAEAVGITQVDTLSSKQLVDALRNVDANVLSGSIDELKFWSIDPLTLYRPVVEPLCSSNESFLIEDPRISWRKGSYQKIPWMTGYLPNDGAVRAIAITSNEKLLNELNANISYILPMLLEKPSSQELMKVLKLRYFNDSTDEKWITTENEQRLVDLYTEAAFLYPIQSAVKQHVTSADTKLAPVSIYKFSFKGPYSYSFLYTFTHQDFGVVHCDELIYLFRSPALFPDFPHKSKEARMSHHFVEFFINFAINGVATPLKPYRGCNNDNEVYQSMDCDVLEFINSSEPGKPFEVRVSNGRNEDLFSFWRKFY

CqJHE [2] = biological target: T1, CqJHE; assay: JH III partition assay (radiolabelled JH III), […] min preincubation; assay type: biochemical
[3] = substrate: COC(=O)/C=C(\C)CC/C=C(\C)CC[C@H]1OC1(C)C; assay: JH III partition assay (radiolabelled JH III); assay type: biochemical, Culex quinquefasciatus; details: 50 mM sodium phosphate pH 7.4, 30°C
Excerpt: JH III partition assay (radiolabelled JH III) on CqJHE

[4] = substrate: CC(=O)Oc1ccc([N+](=O)[O-])cc1; assay: spectrophotometric, OD405; assay type: biochemical, Culex quinquefasciatus; details: 50 mM sodium phosphate pH 7.4, 30°C
Excerpt: spectrophotometric, OD405 on CqJHE

[5] = substrate: CC(=O)Oc1cccc2ccccc12; assay: spectrophotometric, OD450; assay type: biochemical, Culex quinquefasciatus; details: glycine-NaOH pH 9.0, 30°C
Excerpt: spectrophotometric, OD450 on CqJHE

## C#CCOC(=O)/C=C(C)/C=C/CC(C)CCCC(C)C (stereo not drawn) [kinoprene]
CqJHE [1]
  inhibition at 5 µM: 50%

## CCOC(=O)/C=C(C)/C=C/C[C@@H](C)CCCC(C)C [hydroprene]
CqJHE [1]
  inhibition at 5 µM: 40%

## CCCCCCCCSCC(=O)C(F)(F)F [OTFP, 3-octylthio-1,1,1-trifluoropropan-2-one]
CqJHE [2]
  IC50: 0.23 ± 0.05 nM

B1: CqJHE (Culex quinquefasciatus) (protein)
chain: HETQRLGTEENTLQNPRVCIDDGCLRGKTMEGYQAGPFNAFVGIPYAKPPTEELRFSNPVRNEPWKRGIVYNATEDKPMCVQKNDLLPNAKVSGDEDCLYLNVYQPMVHSSSKTPLPVMVYIHGGGFFAGGASPSIIGPEYFMDTRRVILVTFQYRLGVFGFLSTGDEVAPGNFGLKDQVMALRWVKHNIAYFGGNPDLVTIFGQSAGGASVHMHMISPMSDGLFSRAIVMSGNAIAPWNIPTEDPLSLAQRQAEAVGITQVDTLSSKQLVDALRNVDANVLSGSIDELKFWSIDPLTLYRPVVEPLCSSNESFLIEDPRISWRKGSYQKIPWMTGYLPNDGAVRAIAITSNEKLLNELNANISYILPMLLEKPSSQELMKVLKLRYFNDSTDEKWITTENEQRLVDLYTEAAFLYPIQSAVKQHVTSADTKLAPVSIYKFSFKGPYSYSFLYTFTHQDFGVVHCDELIYLFRSPALFPDFPHKSKEARMSHHFVEFFINFAINGVATPLKPYRGCNNDNEVYQSMDCDVLEFINSSEPGKPFEVRVSNGRNEDLFSFWRKFY
notes: full-length cDNA (ORF 1746 nt) from 4th instar larvae, predicted 19-residue signal peptide removed on secretion, mature 563 residues, 63,430 Da; recombinant baculovirus AcCqJHE in High Five cells, secreted
[3]
  Km: 0.13 ± 0.02 µM
  Vmax: 1.2 µmol/min/mg
  kcat: 1.3 s⁻¹
  kcat/Km: 1e+07 M⁻¹ s⁻¹
[4]
  Km: 340 ± 17 µM
  Vmax: 120 µmol/min/mg
  kcat: 130 s⁻¹
  kcat/Km: 380000 M⁻¹ s⁻¹
[5]
  Km: 2960 ± 420 µM
  Vmax: 20 µmol/min/mg
  kcat: 21 s⁻¹
  kcat/Km: 7100 M⁻¹ s⁻¹
